Results taken from the supplement of paper PMC9112550, “Optimization of the antimicrobial peptide Bac7 by deep mutational scanning” (BMC Biology, 2022).

These sequences were tested on Escherichia coli TOP10 (assay: shrunken log2 fold change of peptide-encoding DNA abundance (4.5 h post-induction vs induction); higher = less antimicrobial activity (less host growth inhibition)). Settings: time post-induction: 4.5 h; library: site-saturation at positions 5, 18, 19, 20.
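Further: peptides expressed intracellularly from a pBAD plasmid library in pooled LB shake-flask culture, induced with 0.3% L-arabinose, DNA abundance read by NGS, three biological replicates, DESeq2 with apeglm shrinkage.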

Point of comparison: RRIRKRPPRLPRPRPRPHHHPRP, “shrunken log2 fold change” value -0.208. Against it:
- RRIRQRPPRLPRPRPRPGRVPRP — higher, 0.422
- RRIRYRPPRLPRPRPRPGLYPRP — lower, -0.486
- RRIRERPPRLPRPRPRPKDWPRP — higher, 0.111
- RRIRSRPPRLPRPRPRPRMEPRP — higher, 0.0338
- RRIRKRPPRLPRPRPRPQAGPRP — within 0.2 log units, -0.00963
- RRIRHRPPRLPRPRPRPLAEPRP — higher, 0.243
- RRIRVRPPRLPRPRPRPRQWPRP — higher, 0.236
- RRIRCRPPRLPRPRPRPRTYPRP — lower, -0.447
- RRIRSRPPRLPRPRPRPKNLPRP — lower, -0.599
- RRIRLRPPRLPRPRPRPVMRPRP — higher, 0.076
- RRIRNRPPRLPRPRPRPIYKPRP — lower, -0.414
- RRIRKRPPRLPRPRPRPAHNPRP — higher, 0.473
- RRIRARPPRLPRPRPRPGPCPRP — higher, 0.251
- RRIRDRPPRLPRPRPRPYFPPRP — lower, -0.944
- RRIRVRPPRLPRPRPRPYEPPRP — lower, -1.29
- RRIRFRPPRLPRPRPRPGRMPRP — higher, 0.0574
- RRIRLRPPRLPRPRPRPCWAPRP — within 0.2 log units, -0.0392
- RRIRNRPPRLPRPRPRPTSLPRP — within 0.2 log units, -0.0597
- RRIRQRPPRLPRPRPRPNRTPRP — higher, 0.0639
- RRIRDRPPRLPRPRPRPGCVPRP — higher, 0.616
- RRIRNRPPRLPRPRPRPGIIPRP — higher, -0.00401
- RRIRSRPPRLPRPRPRPEWMPRP — higher, 0.0203
- RRIRIRPPRLPRPRPRPCQWPRP — higher, 0.0525
- RRIRMRPPRLPRPRPRPDYTPRP — within 0.2 log units, -0.0182
- RRIRFRPPRLPRPRPRPCHHPRP — within 0.2 log units, -0.0196
- RRIRRRPPRLPRPRPRPGAIPRP — higher, 0.179
- RRIRTRPPRLPRPRPRPNRTPRP — higher, -0.002
- RRIRNRPPRLPRPRPRPDMPPRP — within 0.2 log units, -0.244
- RRIRMRPPRLPRPRPRPGCFPRP — higher, 0.773
- RRIRKRPPRLPRPRPRPPRNPRP — higher, 0.671
- RRIRDRPPRLPRPRPRPDFKPRP — higher, 0.00362
- RRIRYRPPRLPRPRPRPRYNPRP — within 0.2 log units, -0.339
- RRIRNRPPRLPRPRPRPIIHPRP — lower, -0.712
- RRIRDRPPRLPRPRPRPTNWPRP — higher, 0.111
- RRIRTRPPRLPRPRPRPNKAPRP — within 0.2 log units, -0.0944
- RRIRWRPPRLPRPRPRPCVGPRP — higher, 0.352
- RRIRYRPPRLPRPRPRPPCGPRP — within 0.2 log units, -0.406
- RRIRKRPPRLPRPRPRPCVRPRP — within 0.2 log units, -0.215
- RRIRKRPPRLPRPRPRPMLWPRP — higher, 0.323
- RRIRVRPPRLPRPRPRPEGCPRP — higher, 0.132
- RRIRLRPPRLPRPRPRPCVDPRP — higher, 0.0214
- RRIRYRPPRLPRPRPRPMKIPRP — within 0.2 log units, -0.0574
- RRIRVRPPRLPRPRPRPGLCPRP — higher, 0.0795
- RRIRIRPPRLPRPRPRPMIVPRP — within 0.2 log units, -0.0322
- RRIRQRPPRLPRPRPRPLVTPRP — within 0.2 log units, -0.122
- RRIRLRPPRLPRPRPRPEWHPRP — higher, 0.222
- RRIRYRPPRLPRPRPRPDAHPRP — within 0.2 log units, -0.0156
- RRIRLRPPRLPRPRPRPPINPRP — within 0.2 log units, -0.00991
- RRIRQRPPRLPRPRPRPPYWPRP — higher, 0.0656
- RRIRGRPPRLPRPRPRPAIHPRP — higher, 0.164
- RRIRHRPPRLPRPRPRPTLYPRP — within 0.2 log units, -0.362
- RRIRARPPRLPRPRPRPVAFPRP — higher, 0.457
- RRIRLRPPRLPRPRPRPFCKPRP — within 0.2 log units, -0.101
- RRIRRRPPRLPRPRPRPHWHPRP — higher, 0.0772
- RRIRARPPRLPRPRPRPVNLPRP — higher, 0.0654
- RRIRMRPPRLPRPRPRPAIAPRP — higher, 1.25
- RRIRSRPPRLPRPRPRPNIEPRP — within 0.2 log units, -0.264
- RRIRQRPPRLPRPRPRPWPWPRP — higher, 0.0839
- RRIRQRPPRLPRPRPRPERKPRP — higher, 0.0453
- RRIRYRPPRLPRPRPRPHYHPRP — within 0.2 log units, -0.241
- RRIRYRPPRLPRPRPRPIMGPRP — within 0.2 log units, -0.0134
- RRIRTRPPRLPRPRPRPICLPRP — within 0.2 log units, -0.14
- RRIRPRPPRLPRPRPRPLTVPRP — within 0.2 log units, -0.126
- RRIRMRPPRLPRPRPRPKAVPRP — higher, 0.0216
- RRIRARPPRLPRPRPRPKYYPRP — within 0.2 log units, -0.179
- RRIRDRPPRLPRPRPRPSFCPRP — within 0.2 log units, -0.0945
- RRIRWRPPRLPRPRPRPTCQPRP — higher, 0.729
- RRIRARPPRLPRPRPRPGHWPRP — higher, 0.628
- RRIRHRPPRLPRPRPRPDYSPRP — lower, -0.657
- RRIRKRPPRLPRPRPRPDFYPRP — within 0.2 log units, -0.0302
- RRIRYRPPRLPRPRPRPVVGPRP — within 0.2 log units, -0.172
- RRIRKRPPRLPRPRPRPCIHPRP — within 0.2 log units, -0.124
- RRIRRRPPRLPRPRPRPDQLPRP — within 0.2 log units, -0.0202
- RRIRIRPPRLPRPRPRPDGMPRP — within 0.2 log units, -0.06
